# The supplement of paper PMC5998384
# Key:
# HeLa Kyoto [1] = experiment: solubility in G1/S (NP-40 vs SDS abundance) (log2 ratio); higher = more soluble; settings: cell cycle stage: G1/S
# HeLa Kyoto [2] = experiment: thermal stability score vs G1/S (z-score of summed log2 fold changes over temperatures); higher = more thermally stable than in G1/S
# HeLa Kyoto [3] = experiment: solubility change mitosis vs G1/S (difference of NP-40 vs SDS log2 ratios) (log2 ratio difference); higher = more soluble in mitosis
# HeLa Kyoto [4] = experiment: melting temperature (median over replicates), in situ; higher = more thermally stable
# [5] = cell cycle stage: early G1 (4.5 h after nocodazole release)
# 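For melting temperature (median over replicates), in situ in this document: HeLa Kyoto cells synchronized by double thymidine or nocodazole block, proteins quantified by TMT10plex mass spectrometry, three independent biological replicates.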
# 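For solubility change mitosis vs G1/S (difference of NP-40 vs SDS log2 ratios) in this document: synchronized HeLa Kyoto cells (double thymidine block for G1/S, nocodazole release for mitosis), protein amounts in NP-40 versus SDS lysates quantified by mass spectrometry, three biological replicates.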
# 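For solubility in G1/S (NP-40 vs SDS abundance) in this document: HeLa Kyoto cells arrested at G1/S by double thymidine block, proteins quantified by TMT10plex mass spectrometry in mild NP-40 versus SDS extracts, three biological replicates.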
# 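For thermal stability score vs G1/S (z-score of summed log2 fold changes over temperatures) in this document: synchronized HeLa Kyoto cells, proteins quantified by TMT10plex mass spectrometry, three biological replicates, mitosis taken 0.5 h after nocodazole release, G1/S directly after double thymidine block.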
Sequence,solubility in G1/S (log2) (HeLa Kyoto [1]),thermal stability score (HeLa Kyoto [2]; [5]),thermal stability score (HeLa Kyoto [2]; cell cycle stage: mitosis),solubility change mitosis (log2) (HeLa Kyoto [3]),melting temperature (HeLa Kyoto [4]; cell cycle stage: G1/S),melting temperature (HeLa Kyoto [4]; cell cycle stage: mitosis)
MEVTGDAGVPESGEIRTLKPCLLRRNYSREQHGVAASCLEDLRSKACDILAIDKSLTPVTLVLAEDGTIVDDDDYFLCLPSNTKFVALASNEKWAYNNSDGGTAWISQESFDVDETDSGAGLKWKNVARQLKEDLSSIILLSEEDLQMLVDAPCSDLAQELRQSCATVQRLQHTLQQVLDQREEVRQSKQLLQLYLQALEKEGSLLSKQEESKAAFGEEVDAVDTGISRETSSDVALASHILTALREKQAPELSLSSQDLELVTKEDPKALAVALNWDIKKTETVQEACERELALRLQQTQSLHSLRSISASKASPPGDLQNPKRARQDPT [DFFA],0.392,-1.44,-0.858,0.0192,54.2 °C,54.5 °C
MQLTVKALQGRECSLQVPEDELVSTLKQLVSEKLNVPVRQQRLLFKGKALADGKRLSDYSIGPNSKLNLVVKPLEKVLLEEGEAQRLADSPPPQVWQLISKVLARHFSAADASRVLEQLQRDYERSLSRLTLDDIERLASRFLHPEVTETMEKGFSK [UBL4A],0.557,0.0718,0.136,0.277,51.4 °C,51.7 °C
MSNTTVVPSTAGPGPSGGPGGGGGGGGGGGGTEVIQVTNVSPSASSEQMRTLFGFLGKIDELRLFPPDDSPLPVSSRVCFVKFHDPDSAVVAQHLTNTVFVDRALIVVPYAEGVIPDEAKALSLLAPANAVAGLLPGGGLLPTPNPLTQIGAVPLAALGAPTLDPALAALGLPGANLNSQSLAADQLLKLMSTVDPKLNHVAAGLVSPSLKSDTSSKEIEEAMKRVREAQSLISAAIEPDKKEEKRRHSRSRSRSRRRRTPSSSRHRRSRSRSRRRSHSKSRSRRRSKSPRRRRSHSRERGRRSRSTSKTRDKKKEDKEKKRSKTPPKSYSTARRSRSASRERRRRRSRSGTRSPKKPRSPKRKLSRSPSPRRHKKEKKKDKDKERSRDERERSTSKKKKSKDKEKDRERKSESDKDVKQVTRDYDEEEQGYDSEKEKKEEKKPIETGSPKTKECSVEKGTGDSLRESKVNGDDHHEEDMDMSD [SRSF11],-0.739,1.04,3.54,0.175,49.7 °C,50.4 °C
MAAFSKYLTARNSSLAGAAFLLLCLLHKRRRALGLHGKKSGKPPLQNNEKEGKKERAVVDKVFFSRLIQILKIMVPRTFCKETGYLVLIAVMLVSRTYCDVWMIQNGTLIESGIIGRSRKDFKRYLLNFIAAMPLISLVNNFLKYGLNELKLCFRVRLTKYLYEEYLQAFTYYKMGNLDNRIANPDQLLTQDVEKFCNSVVDLYSNLSKPFLDIVLYIFKLTSAIGAQGPASMMAYLVVSGLFLTRLRRPIGKMTITEQKYEGEYRYVNSRLITNSEEIAFYNGNKREKQTVHSVFRKLVEHLHNFILFRFSMGFIDSIIAKYLATVVGYLVVSRPFLDLSHPRHLKSTHSELLEDYYQSGRMLLRMSQALGRIVLAGREMTRLAGFTARITELMQVLKDLNHGKYERTMVSQQEKGIEGVQVIPLIPGAGEIIIADNIIKFDHVPLATPNGDVLIRDLNFEVRSGANVLICGPNGCGKSSLFRVLGELWPLFGGRLTKPERGKLFYVPQRPYMTLGTLRDQVIYPDGREDQKRKGISDLVLKEYLDNVQLGHILEREGGWDSVQDWMDVLSGGEKQRMAMARLFYHKPQFAILDECTSAVSVDVEGYIYSHCRKVGITLFTVSHRKSLWKHHEYYLHMDGRGNYEFKQITEDTVEFGS [ABCD3],-0.213,1.37,0.619,-0.103,52.5 °C,52.3 °C
MSSRKQGSQPRGQQSAEEENFKKPTRSNMQRSKMRGASSGKKTAGPQQKNLEPALPGRWGGRSAENPPSGSVRKTRKNKQKTPGNGDGGSTSEAPQPPRKKRARADPTVESEEAFKNRMEVKVKIPEELKPWLVEDWDLVTRQKQLFQLPAKKNVDAILEEYANCKKSQGNVDNKEYAVNEVVAGIKEYFNVMLGTQLLYKFERPQYAEILLAHPDAPMSQVYGAPHLLRLFVRIGAMLAYTPLDEKSLALLLGYLHDFLKYLAKNSASLFTASDYKVASAEYHRKAL [MORF4L2],0.0399,0.948,0.257,0.484,52.9 °C,52.1 °C
